Assay results as given in publication PMC4947163, “RNA polymerase I–Rrn3 complex at 4.8 Å resolution” (Nature Communications, 2016).

T1: Pol I subunit A49 (S. cerevisiae, UniProt Q01080 1-415)
T1 construct: Pol I subunit A49, S. cerevisiae; Stood in the assay as a subunit of the whole Pol I; source: endogenous, purified from yeast as part of Pol I
T1 sequence (looked up): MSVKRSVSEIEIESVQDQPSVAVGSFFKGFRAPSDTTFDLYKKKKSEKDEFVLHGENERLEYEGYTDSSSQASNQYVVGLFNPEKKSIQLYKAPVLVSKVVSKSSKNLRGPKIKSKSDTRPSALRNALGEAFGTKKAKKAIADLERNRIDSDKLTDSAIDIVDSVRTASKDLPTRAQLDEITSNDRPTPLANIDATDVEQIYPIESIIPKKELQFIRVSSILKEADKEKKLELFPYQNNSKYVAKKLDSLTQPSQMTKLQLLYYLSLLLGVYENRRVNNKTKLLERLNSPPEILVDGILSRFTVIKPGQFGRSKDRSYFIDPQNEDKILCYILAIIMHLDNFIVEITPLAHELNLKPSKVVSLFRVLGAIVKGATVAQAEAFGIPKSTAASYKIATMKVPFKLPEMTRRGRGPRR

T2: Pol I subunit A135 (S. cerevisiae, UniProt P22138 1-1203)
T2 construct: Pol I subunit A135, S. cerevisiae; Stood in the assay as a subunit of the whole Pol I; source: endogenous, purified from yeast as part of Pol I
T2 sequence (looked up): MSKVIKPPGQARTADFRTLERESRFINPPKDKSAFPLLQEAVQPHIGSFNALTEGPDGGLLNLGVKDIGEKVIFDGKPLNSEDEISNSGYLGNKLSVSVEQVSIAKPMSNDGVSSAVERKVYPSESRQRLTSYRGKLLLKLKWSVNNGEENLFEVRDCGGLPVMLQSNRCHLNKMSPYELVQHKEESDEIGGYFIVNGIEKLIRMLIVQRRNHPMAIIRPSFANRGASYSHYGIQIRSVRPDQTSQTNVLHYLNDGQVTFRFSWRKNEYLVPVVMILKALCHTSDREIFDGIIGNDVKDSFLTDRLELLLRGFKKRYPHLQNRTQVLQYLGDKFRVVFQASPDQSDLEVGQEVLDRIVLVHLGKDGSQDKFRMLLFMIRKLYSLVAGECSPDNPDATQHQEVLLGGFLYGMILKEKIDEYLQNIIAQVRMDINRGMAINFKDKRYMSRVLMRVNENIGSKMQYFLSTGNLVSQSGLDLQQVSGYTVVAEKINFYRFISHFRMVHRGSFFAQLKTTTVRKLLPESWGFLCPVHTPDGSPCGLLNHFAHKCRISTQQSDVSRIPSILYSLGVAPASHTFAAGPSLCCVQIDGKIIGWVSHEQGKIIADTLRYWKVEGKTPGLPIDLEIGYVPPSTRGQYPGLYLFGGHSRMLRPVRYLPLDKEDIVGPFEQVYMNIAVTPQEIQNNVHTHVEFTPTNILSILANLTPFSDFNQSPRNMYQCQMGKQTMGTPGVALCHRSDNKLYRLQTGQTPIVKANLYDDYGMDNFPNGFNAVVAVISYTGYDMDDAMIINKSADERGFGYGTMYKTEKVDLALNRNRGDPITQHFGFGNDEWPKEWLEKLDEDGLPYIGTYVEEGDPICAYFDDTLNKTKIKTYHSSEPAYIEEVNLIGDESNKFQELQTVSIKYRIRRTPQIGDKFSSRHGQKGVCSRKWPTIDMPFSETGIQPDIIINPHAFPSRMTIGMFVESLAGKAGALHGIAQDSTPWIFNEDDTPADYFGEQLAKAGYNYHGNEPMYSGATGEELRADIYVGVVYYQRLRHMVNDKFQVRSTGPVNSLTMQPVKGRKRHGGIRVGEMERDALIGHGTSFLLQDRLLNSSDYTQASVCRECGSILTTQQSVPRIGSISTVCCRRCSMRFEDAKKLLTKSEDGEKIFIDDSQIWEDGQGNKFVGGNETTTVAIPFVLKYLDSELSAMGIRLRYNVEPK

B1: Pol I subunit AC40 (natural protein, S. cerevisiae, UniProt P07703 1-335, looked up)
chain: MSNIVGIEYNRVTNTTSTDFPGFSKDAENEWNVEKFKKDFEVNISSLDAREANFDLINIDTSIANAFRRIMISEVPSVAAEYVYFFNNTSVIQDEVLAHRIGLVPLKVDPDMLTWVDSNLPDDEKFTDENTIVLSLNVKCTRNPDAPKGSTDPKELYNNAHVYARDLKFEPQGRQSTTFADCPVVPADPDILLAKLRPGQEISLKAHCILGIGGDHAKFSPVSTASYRLLPQINILQPIKGESARRFQKCFPPGVIGIDEGSDEAYVKDARKDTVSREVLRYEEFADKVKLGRVRNHFIFNVESAGAMTPEEIFFKSVRILKNKAEYLKNCPITQ
notes: Pol I subunit AC40, S. cerevisiae; Stood in the assay as a subunit of the whole Pol I; source: endogenous, purified from yeast as part of Pol I
B2: Pol I subunit A34.5 (natural protein, S. cerevisiae, UniProt P47006 1-233, looked up)
chain: MSKLSKDYVSDSDSDDEVISNEFSIPDGFKKCKHLKNFPLNGDNKKKAKQQQVWLIKFPSNVDISKLKSLPVDFESSTTMTIDKHDYKIMDDTDIESSLTQDNLSNMTLLVPSESKESLKIASTAKDNAPLQFDKVFSVSETAKIPAIDYSKVRVPRKDVPKVEGLKLEHFATGYDAEDFHVAEEVKENKKEPKKRSHHDDEEESSEKKKKKKEKREKREKKDKKDKKKKHRD
notes: Pol I subunit A34.5, S. cerevisiae; Stood in the assay as a subunit of the whole Pol I; source: endogenous, purified from yeast as part of Pol I
B3: Rrn3 (natural protein, S. cerevisiae)
chain: MMAFENTSKRPPQDFVAPIDQKKRKVQFSDSTGLVTLQPEEIKDEVFSAAMYSRFVKSALDDLDKNDSTQIGIIANQVALPSKNPERINDKNLNILLDILSSNINRIESSRGTFLIQSIINFEKWWELPPHTLSKYIYFIKILCSSIPKWWQDVSMILVSCFILPIKQTVCHHDMLKYFLRMIPSSMGFIDTYLAKFFPNKNDTRRKLVNYTSNLLKLRGYCSELGFQIWSLLIEKIISIDVELQNELDELDDDVDDDDLEEVDLEDDDDLDDDSGDDDDENCGNSNEELRSGAADGSQSDSEDMDIIEGMDGTEEYNVELTQGIKELSTKLDSILTLVSTHVEEQVTPESLESGEGVGVFNTLTTLFKTHVLPTYYTRSIQYIMFHVSQQQLELMDSFLVTLIDISFAVNEAAEKKIKSLQYLGSYIARAKKLSRTQIIFVASYLTSWLNRYVIEREEEVDQRGGMERFKHFYAAFQALCYIFCFRHNIFRDTDGNWECELDKFFQRMVISKFNPLKFCNENVMLMFARIAQQESVAYCFSIIENNNNERLRGIIGKADSDKKENSAQANTTSSSWSLATRQQFIDLQSYFPYDPLFLKNYKILMKEYYIEWSEASGEYESDGSDD
notes: Rrn3, Pol I-specific initiation factor, S. cerevisiae; also called Pol I-specific initiation factor Rrn3
B4: Pol I subunit AC19 (natural protein, S. cerevisiae, UniProt P28000 1-142, looked up)
chain: MTEDIEQKKTATEVTPQEPKHIQEEEEQDVDMTGDEEQEEEPDREKIKLLTQATSEDGTSASFQIVEEDHTLGNALRYVIMKNPDVEFCGYSIPHPSENLLNIRIQTYGETTAVDALQKGLKDLMDLCDVVESKFTEKIKSM
notes: Pol I subunit AC19, S. cerevisiae; Stood in the assay as a subunit of the whole Pol I; source: endogenous, purified from yeast as part of Pol I

Columns and labels:
Assay in all cases: cryo-EM structure; Pol I incubated with fivefold excess of Rrn3 and CF overnight at 4 °C, SEC in buffer A (150 mM sodium chloride, 5 mM HEPES pH 7.8, 1 mM magnesium chloride, 10 μM zinc chloride, 5 mM dithiothreitol), crosslinked with 1 mM BS3; single-particle reconstruction at 4.8 Å from 63,445 particles; crystal structures fitted as rigid bodies
Conditions in all cases: both partners purified
Rrn3 = biological target: B3
Pol I subunit A49 = biological target: T1, Pol I subunit A49
Pol I subunit A135 = biological target: T2, Pol I subunit A135
Pol I subunit A190 = biological target: T3, Pol I subunit A190 (S. cerevisiae, UniProt P10964 1-1664)
T3 construct: Pol I subunit A190, S. cerevisiae; Stood in the assay as a subunit of the whole Pol I; source: endogenous, purified from yeast as part of Pol I

Pol I subunit AC40 = biological target: B1

T3 sequence (P10964 whole entry): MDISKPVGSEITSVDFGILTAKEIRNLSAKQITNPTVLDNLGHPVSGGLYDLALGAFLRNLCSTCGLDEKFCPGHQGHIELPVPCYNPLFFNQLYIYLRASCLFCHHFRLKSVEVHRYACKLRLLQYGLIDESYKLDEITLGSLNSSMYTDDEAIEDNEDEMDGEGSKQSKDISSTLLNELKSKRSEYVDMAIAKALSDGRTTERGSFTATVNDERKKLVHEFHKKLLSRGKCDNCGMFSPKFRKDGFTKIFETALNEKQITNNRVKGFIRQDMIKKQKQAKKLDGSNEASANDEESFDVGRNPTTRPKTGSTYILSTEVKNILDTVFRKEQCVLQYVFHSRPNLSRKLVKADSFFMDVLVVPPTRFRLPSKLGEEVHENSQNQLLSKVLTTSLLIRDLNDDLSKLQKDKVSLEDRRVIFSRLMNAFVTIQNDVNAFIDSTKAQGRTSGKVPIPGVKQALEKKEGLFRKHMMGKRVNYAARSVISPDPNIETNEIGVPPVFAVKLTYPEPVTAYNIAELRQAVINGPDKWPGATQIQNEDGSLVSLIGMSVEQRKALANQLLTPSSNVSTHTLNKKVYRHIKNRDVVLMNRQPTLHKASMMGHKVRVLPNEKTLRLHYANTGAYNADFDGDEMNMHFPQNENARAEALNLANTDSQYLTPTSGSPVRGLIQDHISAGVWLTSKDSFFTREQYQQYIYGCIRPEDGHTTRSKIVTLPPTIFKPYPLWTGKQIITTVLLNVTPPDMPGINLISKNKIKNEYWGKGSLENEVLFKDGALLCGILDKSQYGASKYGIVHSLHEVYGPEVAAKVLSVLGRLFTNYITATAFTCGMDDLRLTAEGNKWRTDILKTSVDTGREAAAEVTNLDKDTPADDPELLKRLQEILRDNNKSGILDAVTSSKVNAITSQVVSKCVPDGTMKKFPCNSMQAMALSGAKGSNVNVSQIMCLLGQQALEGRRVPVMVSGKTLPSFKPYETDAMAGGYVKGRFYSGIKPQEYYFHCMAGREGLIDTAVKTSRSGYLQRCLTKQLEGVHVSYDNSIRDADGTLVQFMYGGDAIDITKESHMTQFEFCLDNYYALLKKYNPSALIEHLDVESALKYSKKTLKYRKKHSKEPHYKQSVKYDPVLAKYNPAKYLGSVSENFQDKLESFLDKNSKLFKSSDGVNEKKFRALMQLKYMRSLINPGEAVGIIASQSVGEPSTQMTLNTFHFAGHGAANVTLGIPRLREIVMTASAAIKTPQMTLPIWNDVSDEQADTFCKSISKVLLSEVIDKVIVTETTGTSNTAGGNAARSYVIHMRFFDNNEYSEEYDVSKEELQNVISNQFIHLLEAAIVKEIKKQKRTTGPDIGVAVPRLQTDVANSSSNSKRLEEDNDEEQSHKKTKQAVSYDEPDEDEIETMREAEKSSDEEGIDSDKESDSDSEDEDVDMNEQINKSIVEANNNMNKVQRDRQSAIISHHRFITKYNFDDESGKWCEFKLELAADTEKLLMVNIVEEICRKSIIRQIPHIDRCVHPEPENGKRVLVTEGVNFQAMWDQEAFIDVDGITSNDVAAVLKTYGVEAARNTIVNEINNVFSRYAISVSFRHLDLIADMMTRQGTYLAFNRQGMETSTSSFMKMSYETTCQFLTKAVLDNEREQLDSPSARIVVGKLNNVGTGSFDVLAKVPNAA

Binder: B1
binding result (Rrn3): binds

Binder: B2
binding result (Pol I subunit A49): binds

Binder: B3
binding result (Pol I subunit A135): binds | binding result (Pol I subunit A190): binds

Binder: B4
binding result (Pol I subunit AC40): binds | binding result (Rrn3): binds
